# Measured values reported in patent publication US20260069656A1, “Nutritive Polypeptides and Formulations Thereof, and Methods of Production and Use Thereof” (Axcella Health Inc., priority 2013, published 2026).
# Substitutions are numbered along the chain they refer to. Numbers in names are those of the source.
# B1: SEQID-00610: protein of the 168 nutritive polypeptide library (protein, listed as Saccharomyces cerevisiae)
# chain: MVLEATVLVIDNSEYSRNGDFPRTRFEAQIDSVEFIFQAKRNSNPENTVGLISGAGANPRVLSTFTAEFGKILAGLHDTQIEGKLHMATALQIAQLTLKHRQNKVQHQRIVAFVCSPISDSRDELIRLAKTLKKNNVAVDIINFGEIEQNTELLDEFIAAVNNPQEETSHLLTVTPGPRLLYENIASSPIILEEGSSGMGAFGGSGGDSDANGTFMDFGVDPSMDPELAMALRLSMEEEQQRQERLRQQQQQQDQPEQSEQPEQHQDK
# modifications: strain ATCC 204508 / S288c
# notes: protein of the 168 nutritive polypeptide library
# B2: SEQID-00647: protein of the 168 nutritive polypeptide library (protein)
# chain: MALSKIEEARQLNDDDLSEQILEIKKQLANLRLLKATGRLEKPHEIRHTRHRLSQLLTVERERQLPNQSPA
# modifications: Arthrospira platensis C1
# notes: as for B1
# B3: R134M: single amino acid mutant of SEQID-00338 at substrate binding position 134 (protein, listed as Saccharomyces cerevisiae)
# chain: MSSSESIRMVLIGPPGAGKGTQAPNLQERFHAAHLATGDMLRSQIAKGTQLGLEAKKIMDQGGLVSDDIMVNMIKDELTNNPACKNGFILDGFPRTIPQAEKLDQMLKEQGTPLEKAIELKVDDELLVARITGMLIHPASGRSYHKIFNPPKEDMKDDVTGEALVQRSDDNADALKKRLAAYHAQTEPIVDFYKKTGIWAGVDASQPPATVWADILNKLGKD
# modifications: strain ATCC 204508 / S288c
# B4: R134Y: single amino acid mutant of SEQID-00338 at substrate binding position 134 (protein, listed as Saccharomyces cerevisiae)
# chain: B3 chain with M134Y
# modifications: strain ATCC 204508 / S288c
# B5: R42A: single amino acid mutant of SEQID-00338 at substrate binding position 42 (protein, listed as Saccharomyces cerevisiae)
# chain: B3 chain with R42A, M134R
# modifications: strain ATCC 204508 / S288c
# B6: R42C: single amino acid mutant of SEQID-00338 at substrate binding position 42 (protein, listed as Saccharomyces cerevisiae)
# chain: B3 chain with R42C, M134R
# modifications: strain ATCC 204508 / S288c
# B7: R42G: single amino acid mutant of SEQID-00338 at substrate binding position 42 (protein, listed as Saccharomyces cerevisiae)
# chain: B3 chain with R42G, M134R
# modifications: strain ATCC 204508 / S288c
# B8: R42I: single amino acid mutant of SEQID-00338 at substrate binding position 42 (protein, listed as Saccharomyces cerevisiae)
# chain: B3 chain with R42I, M134R
# modifications: strain ATCC 204508 / S288c
# B9: R42K: single amino acid mutant of SEQID-00338 at substrate binding position 42 (protein, listed as Saccharomyces cerevisiae)
# chain: B3 chain with R42K, M134R
# modifications: strain ATCC 204508 / S288c
# B10: R42L: single amino acid mutant of SEQID-00338 at substrate binding position 42 (protein, listed as Saccharomyces cerevisiae)
# chain: B3 chain with R42L, M134R
# modifications: strain ATCC 204508 / S288c
# B11: R42Q: single amino acid mutant of SEQID-00338 at substrate binding position 42 (protein, listed as Saccharomyces cerevisiae)
# chain: B3 chain with R42Q, M134R
# modifications: strain ATCC 204508 / S288c
# B12: R42T: single amino acid mutant of SEQID-00338 at substrate binding position 42 (protein, listed as Saccharomyces cerevisiae)
# chain: B3 chain with R42T, M134R
# modifications: strain ATCC 204508 / S288c
# B13: D91F: single amino acid mutant of SEQID-00338 at magnesium ion binding site position 91 (protein, listed as Saccharomyces cerevisiae)
# chain: B3 chain with D91F, M134R
# modifications: strain ATCC 204508 / S288c
# B14: D91I: single amino acid mutant of SEQID-00338 at magnesium ion binding site position 91 (protein, listed as Saccharomyces cerevisiae)
# chain: B3 chain with D91I, M134R
# modifications: strain ATCC 204508 / S288c
# Test system: not listed separately
# Experiment: SGF digest of the 168 nutritive polypeptide library, intact protein by LC-MS/MS spectral counts
# Type: in vitro ADME
# Details: proteins detected in the 168 nutritive polypeptide library
# Method: Nutritive polypeptide intact half-life determination in a complex mixture. The in vitro intact half-life of multiple polypeptides in a complex mixture was determined using the simulated gastric in vitro digestion described above. Briefly, the 168 nutritive polypeptide library was generated as described herein by cloning, transforming, and expressing a gene library encoding 168 proteins as a single mixture. The recombinantly expressed proteins were purified from host cell proteins by IMAC purification as described herein.
# The 168 Protein Library was treated with SGF as described above and the t=0 and t=10 min samples were analyzed for intact protein by LC-MS/MS. To begin, 10 μg of sample was loaded onto a 10% SDS-PAGE gel (Invitrogen) and run approximately 5 cm into the gel. The gel was excised into ten fractions from 100 kD to the dye front and the gel slices were processed by washing with 25 mM ammonium bicarbonate, followed by acetonitrile. Gel fractions were then reduced with 10 mM dithiothreitol at 60° C., followed by alkylation with 50 mM iodoacetamide at room temperature. Finally, the samples were digested with trypsin (Promega) at 37° C. for 4 h and the digestions were quenched with the addition of formic acid. The samples were then analyzed by nano LC/MS/MS using an EasynLC 1000 HPLC system interfaced to a ThermoFisher Q Exactive. Peptides were loaded on a trapping column and eluted over a 75 μm analytical column at 350 nL/min; both columns were packed with PepMap C18 3 μm resin (ThemoFisher). A 1 hour gradient was employed. The mass spectrometer was operated in data-dependent mode, with MS and MS/MS performed in the Orbitrap at 70,000 FWHM resolution and 17,500 FWHM resolution, respectively. The fifteen most abundant ions were selected for MS/MS. Data were searched against an appropriate database using Mascot to identify peptides. Mascot DAT files were parsed into the Scaffold software for validation, filtering and to create a nonredundant list per sample. Data were filtered at 1% protein and peptide false discovery rate (FDR) and requiring at least two unique peptides per protein. A full list of detected proteins and their spectral counts (SpC) was generated and reported as a function of each collected gel fraction. SpC are a count of the number of spectra identified for a given protein and are used as a measure of relative protein abundance (Liu, H. et al., Analytical Chemistry 2004, 76:4193-4201). To calculate the percentage of intact protein remaining at the 10 min time point of the SGF digest the number of SpC representative of intact peptide in the t=10 min sample were divided by the number of SpC representative of intact peptide in the t=0 min sample. The number of SpC representative of intact peptide was defined as the sum of the SpC in the fraction with the highest number of SpC assigned to that protein in the t=0 min sample and the two flanking fractions.
row,Molecule,% Remaining at 10 min [%]
1,B1,3.3
2,B2,12

# Test system: kinase activity of SEQID-00338 (AMP + ATP→2ADP)
# Experiment: Kinase activity of SEQID-00338 and mutants, ADP-Glo Max Assay
# Type: biochemical
# Details: 7 μg/mL, 30 minute reaction at 30° C.; N=2
# Method: Determination of the kinase activity of SEQID-00338. The ADP-Glo™ Max Assay was obtained from Promega (Catalog number V7001, Madison, WI). Adenosine Monophosphate was obtained from Sigma-Aldrich (Catalog number A1752, St. Louis, MO). 5× Kinase Buffer was prepared w/1.211 g Tris Base (Catalog number BP152-2, Fisher Bioreagents, Pittsburgh, PA), 692 μL 12% hydrochloric acid solution (Catalog number BDH3026-500MLP, VWR, Radnor, PA), 10.0 mL 500 mM magnesium chloride (Catalog number BP214-500, Fisher Bioreagents, Pittsburgh, PA) and the volume brought to 50 mL with MilliQ water and filtered through 0.22 μm PES filter (Catalog number SCGP00525, Millipore, Billerica, MA) into a sterile 50 mL tube.
# Twelve his-tag purified mutant proteins and the wild-type protein at 35 μg/mL in Tris buffer were serially diluted to 7.0 and 1.4 μg/mL. Prepared kinase reaction mix at 0.5 mM AMP/0.5 mM ATP to test for activity and at 0 mM AMP/0 mM ATP to assay background activity by diluting 5× Kinase Buffer with appropriate volumes of 10 mM AMP and 10 mM ATP in MilliQ water. Duplicate reactions were prepared by mixing 9 μL of the reaction mixture with 6 μL of diluted SEQID-00338, mixing by pipetting up and down and dispensing 5 μL into a 384-well white OptiPlate (PerkinElmer, Waltham, MA). An ADP standard curve was prepared by serially diluting 4 mM ADP in MilliQ water and adding kinase buffer to 1× for a standard at 0.0005, 0.001, 0.005, 0.01, 0.05, 0.1, 1.5, 1, 2, 3, and 4 mM ADP. The plate was covered with a foil plate seal and incubated at 30° C. for 30 min. Following the kinase reaction, 5 μL of ADP-Glo™ Reagent was added to each well. The plate was sealed with a foil plate seal and placed on a horizontal plate shaker at 450 rpm for 2 minutes at room temperature. The plate was removed from the plate shaker and incubated at room temperature for 40 minutes. The plate was then centrifuged for 15 seconds at 1109× rcf and 10 μL of ADP-Glo™ Max Detection Reagent was added. The plate was sealed with a foil plate seal and shaken on a horizontal plate shaker at 450 rpm at room temperature for 2 minutes. The plate was then removed from the plate shaker and incubated at room temperature for 60 minutes. The plate was centrifuged for 15 seconds at 1109× rcf and the luminescence read on an EnspireAlpha plate reader (PerkinElmer, Waltham, MA).
# The ADP standard curve was used to determine the concentration of ADP in sample wells in the presence or absence of substrate. Concentrations were determined by performing a non-linear 4 parameter logistic on the X=log(X) transformed ADP standard luminescence values. […] Where the background concentration of ADP in the absence of substrate was calculable the average of those values were subtracted from the calculated ADP concentration in the substrate incubated wells. Activity knock out was calculated by percentage activity relative to purified wild-type protein at the same concentration.
row,Molecule,"AVG proportion activity, percentage AMP + ATP→2ADP converted relative to wild-type [%]"
1,B3,0.3
2,B4,0.2
3,B5,0.9
4,B6,1.8
5,B7,1.2
6,B8,1.5
7,B9,2.2
8,B10,1.7
9,B11,1.2
10,B12,1.9
11,B13,0.9
12,B14,0.4

# Test system: not listed separately
# Experiment: Intact half-life during simulated gastric fluid (SGF) digestion
# Details: SGF pH 1.5, pepsin:polypeptide 1:20 w/w, 37° C.; produced in E. coli unless otherwise noted
# Method: Nutritive polypeptide half-life during simulated digestion. One metric for quantifying the breakdown of polypeptides from an intact form to smaller peptides is the intact half-life. In this experiment the nutritive polypeptide was exposed to a series of proteases that are active in the stomach (pepsin) and intestine (trypsin and chymotrypsin), and the presence of intact protein was measured over time. Specifically, the nutritive polypeptide was first treated at a concentration of 2 g/L with simulated gastric fluid (SGF) (0.03 M NaCl, titrated with HCl to pH 1.5 with a final pepsin: polypeptide ratio of 1:20 w/w) at 37° C. Time points were sampled from the reaction and quenched by addition of 0.2 M Na2CO3. […] Time points were sampled from the reaction and quenched by addition of Trypsin/Chymotrypsin Inhibitor (Sigma) solution until 240 min.
# Time point samples were analyzed for intact protein by chip electrophoresis, polyacrylamide gel electrophoresis, or western blot. For chip electrophoresis (Labchip GX II), samples were analyzed using a HT Low MW Protein Express LabChip® Kit (following the manufacturer's protocol). A protein ladder was loaded every 12 samples for molecular weight determination (kDa) and quantification. For polyacrylamide gel electrophoresis, samples (1 μg) were separated on a NuPAGE® Novex® Bis-Tris Precast gel (Life Technologies) according to the manufacturer's protocol. The gel was stained using SimplyBlue™ SafeStain (Invitrogen) and imaged using a Chemidoc XRS+ (BioRad) or transferred onto nitrocellulose membranes using the iBlot® Dry Blotting System (Life Technologies) and iBlot® Western Detection Kit (Life Technologies) according to the manufacturer's protocol. Proteins were detected by blotting with Anti-His [C-term]-HRP antibody diluted 3:5000 in Blok™-PO Blocking Buffer using the SNAP i.d.® Protein Detection System (Millipore) according to the manufacturer's protocol. Blots were treated with Luminata Classico Western HRP Substrate (Millipore) according to the manufacturer's protocol and imaged using chemiluminescent detection on the Molecular Imager® Gel Doc™ XR+ System (Bio-Rad). Quantification of intact protein was determined by densitometry using ImageLab (BioRad). For all analysis methods the relative concentration of the polypeptide at each time point (if detected) was plotted overtime and fit to an exponential curve to calculate the intact half-life.
# Specifically, the t=0 (enzyme-free control) and t=2 min samples from the SGF digest were analyzed for intact protein as described by chip electrophoresis, SDS-PAGE, western blot, and/or LC-MS/MS. Relative quantities of polypeptides at each time point were determined and the percentage of intact protein remaining at t=2 was determined.
row,Molecule,SGF Half-life (t½) [s]
1,B1,24
2,B2,12

# Same assay, conditions: purified proteins, chip electrophoresis, SGF
row,Molecule,Half-life [s]
1,B1,24
2,B2,12
